The text below walks through data of patent US20170202936A1 (VAXON BIOTECH, published 2017).

Assay [1] has as its target T1, HLA-B*0702 (human).
T1 construct: MHC class I molecule on T2-B7 cells; also called HLA-B7
The assay is described as follows: RA grade (+ = 1 < RA < 10), T2-B7 cells, ME-1 mAb staining. The source says:
(§1) The protocol used has been described previously (Rohrlich et al., 2003).

For assay [2], the target named is T1, HLA-B*0702. The assay is described as follows: assay not given.
The target of assay [3] is T1, HLA-B*0702. The assay is described as follows: RA grade (++ = RA < 1), T2-B7 cells, ME-1 mAb staining.
Source text: as §1

The target in assay [4] is T1, HLA-B*0702. Put plainly: T2-B7 cells, HLA-B*0702 surface expression (ME-1 mAb); ratio to reference peptide CMV265-274 (SEQ ID NO: 9).
Source text: as §1

For APRTKAEML [APRTKAEML (SEQ ID NO: 57)], the “relative affinity (RA): ratio of peptide concentration to reference peptide concentration inducing 20% of HLA-B*0702 expression” value with HLA-B*0702 [1] fell in the range of 1 to 10 ratio.

B1: Her2/neu246A1 (peptide)
peptide: APKHSDCLA
notes: Synthetic optimized peptide; Her2/neu246 with A at position 1
Turning to B1, the binding result with HLA-B*0702 [2] is given as “binds”.

As for APREYVNAL [APREYVNAL (SEQ ID NO: 47)], in the assay with HLA-B*0702 [1], the “relative affinity (RA): ratio of peptide concentration to reference peptide concentration inducing 20% of HLA-B*0702 expression” value lay within 1 to 10 ratio.

On to APRMHCAVDL [APRMHCAVDL (SEQ ID NO: 45)], for which the “relative affinity (RA): ratio of peptide concentration to reference peptide concentration inducing 20% of HLA-B*0702 expression” value in the assay with HLA-B*0702 [3] was less than 1 ratio.

On to APRCRAVRSL [TERT4], for which the “RA (relative affinity)” value in the assay with HLA-B*0702 [4] was 0.74 ratio. Moreover, in the assay with HLA-B*0702 [1], the “relative affinity (RA): ratio of peptide concentration to reference peptide concentration inducing 20% of HLA-B*0702 expression” value lay in the range of 1 to 10 ratio.

With APRALVETL [APRALVETL (SEQ ID NO: 49)], the “relative affinity (RA): ratio of peptide concentration to reference peptide concentration inducing 20% of HLA-B*0702 expression” value in the assay with HLA-B*0702 [1] lay in the range of 1 to 10 ratio.

Regarding YPVTNAVITV (also called Hsp137) [Hsp70 137 (10)], the “RA (relative affinity)” value with HLA-B*0702 [4] was greater than 10 ratio.

APRPWTPCL [APRPWTPCL (SEQ ID NO: 52)]: the “relative affinity (RA): ratio of peptide concentration to reference peptide concentration inducing 20% of HLA-B*0702 expression” value with HLA-B*0702 [1] lay within 1 to 10 ratio.

B2: Hsp70115A1R3 (peptide)
peptide: APREISSMVL
notes: Hsp70 115 with A at position 1 and R at position 3
As for B2, the “relative affinity (RA): ratio of peptide concentration to reference peptide concentration inducing 20% of HLA-B*0702 expression” value with HLA-B*0702 [1] fell in the range of 1 to 10 ratio.

With APRVSIRLPL [APRVSIRLPL (SEQ ID NO: 46)], in the assay with HLA-B*0702 [3], the “relative affinity (RA): ratio of peptide concentration to reference peptide concentration inducing 20% of HLA-B*0702 expression” value is less than 1 ratio.

B3: Her2/neu1069L9 (peptide)
peptide: APRSPLAPL
notes: Synthetic optimized peptide; Her2/neu1069 with L at the C-terminal position
As to B3, in the assay with HLA-B*0702 [3], the “relative affinity (RA): ratio of peptide concentration to reference peptide concentration inducing 20% of HLA-B*0702 expression” value is less than 1 ratio.

On to APRRRLGCEL [APRRRLGCEL (SEQ ID NO: 51)], for which the “relative affinity (RA): ratio of peptide concentration to reference peptide concentration inducing 20% of HLA-B*0702 expression” value with HLA-B*0702 [1] was in the range of 1 to 10 ratio.

Turning to YPEEISSMVL (also called Hsp115) [Hsp70 115], in the assay with HLA-B*0702 [4], the “RA (relative affinity)” value is greater than 10 ratio.

In the case of APRRLVQLL (TERT444 with A at position 1) [TERT444A1], in the assay with HLA-B*0702 [4], the “RA (relative affinity)” value was determined as 1.4 ratio. In the assay with HLA-B*0702 [1], the “relative affinity (RA): ratio of peptide concentration to reference peptide concentration inducing 20% of HLA-B*0702 expression” value was in the range of 1 to 10 ratio.

Consider APRSLGLEL [Hsp70397R3L9], for which the “relative affinity (RA): ratio of peptide concentration to reference peptide concentration inducing 20% of HLA-B*0702 expression” value with HLA-B*0702 [3] is less than 1 ratio.
